Patent US20090029864A1

T1: His-tagged Stx 2B-subunit (wild type) (enterohemorrhagic Escherichia coli O157:H7), P09386
T1 chain: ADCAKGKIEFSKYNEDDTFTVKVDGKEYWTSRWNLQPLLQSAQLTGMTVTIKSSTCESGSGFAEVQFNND

B1: (Met-Ala-PPRRNRR-Ala-AHA-)4-3Lys (peptide)
peptide: MAPPRRNRRA
modifications: not checked
B2: (Met-Ala-FRRNRRN-Ala-AHA-)4-3Lys (peptide)
peptide: MAFRRNRRNA
modifications: not checked
B3: (Met-Ala-PPPRRRR-Ala-AHA-)4-3Lys (peptide)
peptide: MAPPPRRRRA
modifications: not checked
B4: (Met-Ala-KRRNPRR-Ala-AHA-)4-3Lys (peptide)
peptide: MAKRRNPRRA
modifications: not checked

Target: T1, His-tagged Stx 2B-subunit (wild type) …

Binder	RUmax [AU]
B1	1350
B2	1490
B3	1250
B4	1290
